{
  "source": "patent US6001823A",
  "about": "“Treatment or prophylaxis of diseases caused by pilus-forming bacteria” (priority 1995, dated 1999)",
  "key": {"PapD [1]": {"molecular_target": "T1, PapD (Escherichia coli, UniProt P15319)", "T1 sequence (P15319 22-239)": "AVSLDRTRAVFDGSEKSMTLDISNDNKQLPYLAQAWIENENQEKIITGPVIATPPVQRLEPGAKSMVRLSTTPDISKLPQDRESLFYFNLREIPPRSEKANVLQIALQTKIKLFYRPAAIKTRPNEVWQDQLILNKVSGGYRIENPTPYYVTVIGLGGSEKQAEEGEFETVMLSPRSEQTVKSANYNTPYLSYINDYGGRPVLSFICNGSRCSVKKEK", "assay": "Soluble inhibition ELISA: peptide inhibition of PapD binding to G1'-19'WT-coated wells", "parameters": "made in house; species or system E. coli", "settings": "peptide in solution", "experimental": "In addition, the ability of water-soluble peptides to inhibit PapD binding to G1'-19'WT-coated wells in a soluble inhibition ELISA were tested, since peptide conformations may have been affected by binding to the plastic microtiter plates:\nMicrotiter wells were coated overnight at 4° C. with 50 μl of 2,5 pmol/50 μl of the G1'-19'WT peptide. The wells were washed with PBS and blocked with 3% bovine serum albumin (BSA). A 25-fold molar excess of each test peptide was pre-incubated with 100 pmoles PapD for 30 min. and the PapD-peptide solution was then added to the coated wells and incubated at 25° C. for 45 min in the presence of 3% BSA/PBS. The subsequent primary antibody, secondary antibody and developing steps are described above. The ability of the peptides to inhibit binding of PapD to the G1'-19'WT peptide was calculated by dividing the amount of PapD binding in the presence of peptide with the amount of PapD binding in the presence of water. 0% inhibition includes values where binding was greater than that of PapD pre-incubated with H2 O.\nThe % inhibition represents the percentage of PapD binding in the presence of the peptide compared to in the presence of water and are the average of two experiments performed duplicate: […]"}, "PapD-PapG complex": {"molecular_target": "T2, PapD-PapG complex (Escherichia coli, UniProt P15319)", "T2 construct": "made in house", "T2 sequence (P15319 22-239)": "T1 sequence (P15319 22-239)", "assay": "Reconstitution assay: restoration of PapD-PapG complex from reduced, denatured PapG", "type": "biochemical, E. coli", "settings": "PapD incubated with increasing amounts of peptide", "experimental": "B: PapD incubated with the G1'-19'WT, G1'-16'WT, K1'-19'WT, and G2'-21'amide was added to reduced, denatured PapD-PapG and the amount of PapD-PapG complex restored in each sample was quantitated as described in example 2. The % inhibition represents the amount of the PapD-PapG complex restored with peptide-treated PapD compared to the amount of PapD-PapG complex restored with untreated PapD. The graph represent the average of 4 experiments. PapD and PapD-PapG complex were prepared as described in F. Lindberg et al, J. Bacteriol. 171, 6052 (1989) and S. J. Hultgren et al., Proc. Natl. Acad. Sci. U.S.A. 86, 4357 (1989).\nFIG. 7: Ability of PapD Arg-8, Lys-112 and Thr-7 mutants to bind PapG and restore the PapD-PapG complex in vitro. 0.4 μg of PapD-PapG complex was reduced and denatured as described in FIG. 2B. The denatured PapD-PapG complex was then diluted with 0-630 ng purified wild type (WT) or mutant PapD. The amount of PapD-PapG restored in the samples was determined as in FIG. 2B and was graphed as a percentage of the greatest amount of PapD-PapG restored. The values graphed represent the average of 3 experiments. Wild type and mutant PapD and the PapD-PapG complex were purified as described in F. Lindberg et al, J. Bacteriol. 171, 6052 (1989) and S. J. Hultgren et al., Proc. Natl. Acad. Sci. U.S.A. 86, 4357 (1989).\nAs described in Kuehn et al., Proc. Natl. Acad. Sci. U.S.A. 88, 10586 (1991), native PapD is able to bind to reduced, denatured PapG and restore the PapD-PapG complex in vitro. This reconstitution assay was used to determine the ability of the peptides to inhibit PapD activity in vitro.\nThe PapD-peptide solution was then added to the reduced, denatured PapD-PapG, incubated at 25° C. for 10 min, and applied to an IEF 3-9 gel (Pharmacia). The amount of PapD-PapG restored in each sample was quantitated by densitometry of the silver stained IEF band corresponding to the pI of the DG complex."}, "PapD [2]": {"molecular_target": "T1, PapD", "assay": "ELISA: PapD binding to peptides coated on microtiter wells", "parameters": "made in house; species or system E. coli", "settings": "peptide coated on microtiter wells, ELISA", "experimental": "The residues in the peptides were numbered starting with the carboxyl terminal residue as 1, and ending with the amino terminal residue. Peptides were also synthesized which deviated in length (G1'-16'WT, G1'-11'WT, G1'-7'WT) or sequence (G2'-21'amide, G1'-19'SV, G1'-19'NH2) from the wild type PapG carboxyl terminal sequence. Using an enzyme-linked immunosorbent assay (ELISA), we tested the ability of PapD to bind to each peptide coated on wells of microtiter plates:\n5 mg/ml stock solutions of peptides in water or 50% acetic acid were diluted to a concentration of 2.5 pmol/50 μl in PBS. 50 μl of the peptide solution was coated overnight onto microtiter wells (Nunc-Immuno Plate Maxisorp) at 4° C. The solutions in the plates were discarded, and the wells were blocked with 200 μl 3% bovine serum albumin (BSA, Sigma) in PBS (120 mM NaCl/2.7 mM KCl/10 mM phosphate buffer salts, pH 7.4) for 2 hours at 25° C. The plates were washed vigorously 3 times with PBS and incubated with 50 μl of the indicated amount of purified PapD (Lindberg et al, 1989). After 3 washes with PBS, the wells were incubated with a 1:500 dilution of anti-PapD rabbit antiserum (Lindberg et al, 1989) in 3% BSA/PBS for 45 min. at 25° C. After 3 washes with PBS, the wells were incubated with a 1:1000 dilution of goat anti-rabbit IgG coupled to alkaline phosphatase (Sigma) in 3% BSA/PBS for 45 min. at 25° C. Following 3 washes with PBS and 3 washes with developing buffer (10 mM diethanolamine pH 9.5, 0,5 mM MgCl2), 50 μl filtered p-nitrophenyl phosphate substrate (Sigma) in developing buffer (10 mg/ml) was added. The absorbance at 405 nm was read after 60 min of incubation in the dark at 25° C."}},
  "data": [
    {"substance": "NH2--KPGELSGSMTMVLSFP--COOH (H-KPGELSGSMTMVLSFP-OH) [G1'-16'WT]", "values": [
      {"measurement": "inhibition of PapD binding to immobilized G1'-19'WT by soluble peptide", "setting": "PapD [1]", "result": "inhibited binding"},
      {"measurement": "inhibition of restoration of the PapD-PapG complex by PapD", "setting": "PapD-PapG complex", "result": "inhibit restoration"},
      {"measurement": "binding of PapD to immobilized peptide", "setting": "PapD [2]", "result": "binds"}
    ]}
  ]
}
